Results as given in publication PMC7367873, “Dissecting the sequence determinants for dephosphorylation by the catalytic subunits of phosphatases PP1 and PP2A” (Nature Communications, 2020).

B1: MYO1C (protein, UniProt O00159 1-1063, looked up)
Unconventional myosin-Ic: MALQVELVPTGEIIRVVHPHRPCKLALGSDGVRVTMESALTARDRVGVQDFVLLENFTSEAAFIENLRRRFRENLIYTYIGPVLVSVNPYRDLQIYSRQHMERYRGVSFYEVPPHLFAVADTVYRALRTERRDQAVMISGESGAGKTEATKRLLQFYAETCPAPERGGAVRDRLLQSNPVLEAFGNAKTLRNDNSSRFGKYMDVQFDFKGAPVGGHILSYLLEKSRVVHQNHGERNFHIFYQLLEGGEEETLRRLGLERNPQSYLYLVKGQCAKVSSINDKSDWKVVRKALTVIDFTEDEVEDLLSIVASVLHLGNIHFAANEESNAQVTTENQLKYLTRLLSVEGSTLREALTHRKIIAKGEELLSPLNLEQAAYARDALAKAVYSRTFTWLVGKINRSLASKDVESPSWRSTTVLGLLDIYGFEVFQHNSFEQFCINYCNEKLQQLFIELTLKSEQEEYEAEGIAWEPVQYFNNKIICDLVEEKFKGIISILDEECLRPGEATDLTFLEKLEDTVKHHPHFLTHKLADQRTRKSLGRGEFRLLHYAGEVTYSVTGFLDKNNDLLFRNLKETMCSSKNPIMSQCFDRSELSDKKRPETVATQFKMSLLQLVEILQSKEPAYVRCIKPNDAKQPGRFDEVLIRHQVKYLGLLENLRVRRAGFAYRRKYEAFLQRYKSLCPETWPTWAGRPQDGVAVLVRHLGYKPEEYKMGRTKIFIRFPKTLFATEDALEVRRQSLATKIQAAWRGFHWRQKFLRVKRSAICIQSWWRGTLGRRKAAKRKWAAQTIRRLIRGFVLRHAPRCPENAFFLDHVRTSFLLNLRRQLPQNVLDTSWPTPPPALREASELLRELCIKNMVWKYCRSISPEWKQQLQQKAVASEIFKGKKDNYPQSVPRLFISTRLGTDEISPRVLQALGSEPIQYAVPVVKYDRKGYKPRSRQLLLTPNAVVIVEDAKVKQRIDYANLTGISVSSLSDSLFVLHVQRADNKQKGDVVLQSDHVIETLTKTALSANRVNSININQGSITFAGGPGRDGTIDFTPGSELLITKAKNGHLAVVAPRLNSR
B2: SSBP1 (protein, UniProt Q04837 17-148, looked up)
Single-stranded DNA-binding …: ESETTTSLVLERSLNRVHLLGRVGQDPVLRQVEGKNPVTIFSLATNEMWRSGDSEVYQLGDVSQKTTWHRISVFRPGLRDVAYQYVKKGSRIYLEGKIDYGEYMDKNNVRRQATTIIADNIIFLSDQTKEKE
B3: TUBA1C (protein, UniProt Q9BQE3 1-449, looked up)
Tubulin alpha-1C chain: MRECISIHVGQAGVQIGNACWELYCLEHGIQPDGQMPSDKTIGGGDDSFNTFFSETGAGKHVPRAVFVDLEPTVIDEVRTGTYRQLFHPEQLITGKEDAANNYARGHYTIGKEIIDLVLDRIRKLADQCTGLQGFLVFHSFGGGTGSGFTSLLMERLSVDYGKKSKLEFSIYPAPQVSTAVVEPYNSILTTHTTLEHSDCAFMVDNEAIYDICRRNLDIERPTYTNLNRLISQIVSSITASLRFDGALNVDLTEFQTNLVPYPRIHFPLATYAPVISAEKAYHEQLTVAEITNACFEPANQMVKCDPRHGKYMACCLLYRGDVVPKDVNAAIATIKTKRTIQFVDWCPTGFKVGINYQPPTVVPGGDLAKVQRAVCMLSNTTAVAEAWARLDHKFDLMYAKRAFVHWYVGEGMEEGEFSEAREDMAALEKDYEEVGADSADGEDEGEEY

Assays:
[1] = test system: GFP-14-3-3β and its binding proteins; assay: GFP-14-3-3β co-IP with LC-MS/MS label-free quantification, untreated versus PP1c-treated; parameters: species or system human; conditions: for Difference (log2), PP1 vs untreated: LFQ intensities, 3 replicates each
GFP-14-3-3β = GFP-14-3-3β co-IP with LC-MS/MS, untreated GFP-14-3-3β versus GFP control (14-3-3 interactome); format: binding, human; conditions: for Difference (log2), untreated vs GFP: LFQ intensities, 3 replicates each

Row | Molecule | Difference ([1]; GFP-14-3-3β co-IP, PP1vsUntrted, Perseus raw output, LFQ intensity difference) | Difference (log2), PP1 vs untreated [1] [log2] | Difference (GFP-14-3-3β; UntrtedvsGFP, Perseus raw output, LFQ intensity difference) | Difference (log2), untreated vs GFP (GFP-14-3-3β) [log2]
1 | B1 | 0.4615 | 0.4615 | -0.5566 | -0.5566
2 | B2 | – | 0.4442 | – | -1.1951
3 | B3 | – | 0.444 | – | 0.0777
